Biological target: Pin1 WW-domain (UniProt Q13526)
Assay: isothermal titration calorimetry
Conditions: reference: unphosphorylated TFCD peptide; sites S258,S253

- KD: stronger; reference 1.53 mM
Substance: Tissue Factor (TF) cytoplasmic domain (TFCD) (from UniProt P13726) double phosphorylated TFCD peptide

From PMC6058786
